Values quoted from earlier work as cited in article PMC4257090.
Like-named read-outs stand apart in the source and are kept apart here.

Tests used:
[1] = target: SecA (membrane-bound) (Escherichia coli) (UniProt P10408)
[2] = target: SecA (soluble) (Escherichia coli) (UniProt P10408)
[3] = target: SecA (membrane-bound) (Escherichia coli) (UniProt P10408); remark: listed apart in the source

Kd [1]: 0.03 µM
Kd [2]: 1.5 µM
Kd [3]: 0.01 µM
Substance: SecB (from UniProt P0AG86)
